Results: patent US20050118638A1

What was measured:
[1] = biological target: TSH receptor (detergent solubilised TSH receptor preparation) (UniProt P16473); experiment: solubilised TSHR, PEG method; IgG 100 µg/ml; competitor 125I-16E5 Fab
[2] = biological target: TSH receptor (detergent solubilised TSH receptor preparation) (UniProt P16473); experiment: 125I-TSH, TSHR coated tubes; 200 µg/ml
[3] = biological target: TSH receptor (detergent solubilised TSH receptor preparation) (UniProt P16473); experiment: 125I-TSH, TSHR coated tubes; 20 µg/ml

TSH receptor (detergent solubilised TSH receptor preparation), sequence (P16473 21-764 limits assumed): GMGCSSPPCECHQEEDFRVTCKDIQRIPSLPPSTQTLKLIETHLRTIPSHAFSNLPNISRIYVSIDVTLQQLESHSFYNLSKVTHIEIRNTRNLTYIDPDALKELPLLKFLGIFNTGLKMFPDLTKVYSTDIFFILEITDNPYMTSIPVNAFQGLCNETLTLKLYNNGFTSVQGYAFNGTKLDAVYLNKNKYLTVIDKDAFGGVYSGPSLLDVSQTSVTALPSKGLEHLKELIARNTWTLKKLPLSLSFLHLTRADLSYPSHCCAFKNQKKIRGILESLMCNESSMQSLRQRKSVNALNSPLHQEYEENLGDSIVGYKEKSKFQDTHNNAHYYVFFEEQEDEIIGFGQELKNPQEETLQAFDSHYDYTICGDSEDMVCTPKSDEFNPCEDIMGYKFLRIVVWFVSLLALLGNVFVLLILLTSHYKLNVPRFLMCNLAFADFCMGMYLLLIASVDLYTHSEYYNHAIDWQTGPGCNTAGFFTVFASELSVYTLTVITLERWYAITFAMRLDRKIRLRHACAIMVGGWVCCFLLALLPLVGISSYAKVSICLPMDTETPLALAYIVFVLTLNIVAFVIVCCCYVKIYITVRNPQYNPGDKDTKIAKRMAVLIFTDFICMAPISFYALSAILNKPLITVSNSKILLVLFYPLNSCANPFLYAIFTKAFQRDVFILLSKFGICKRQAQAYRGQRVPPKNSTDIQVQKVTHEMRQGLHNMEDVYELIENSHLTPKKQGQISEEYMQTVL

B1: 3B3 IgG (antibody, V domains shown)
VH: DVQLQQPGAELVKPGASVKLSCTTSGVNIKDTYMHWMKQRPEQGLEWIGRIDPANGNTKYDPKFRGKATITADTSSNTVYVQLRSLTSEDTAVYYCAYDGYWGQGTLVTVSA
VL: NIVMTQTPASLAVSLGQRATISCRASESVDSYGNNFMHWYQQKPGQSPRLLIYRASNLESGIPARFSGSGSRTDFTLTTNPVEADDVATYYCQQSHKDPLTFGAGTKLELK
Question: With B1 as the binder, how does the % inhibition of 125I-16E5 Fab binding [1] read?
Answer: 8.8%

Question: And the % inhibition of TSH binding [2]?
Answer: 30.7%

Question: What about the % inhibition of TSH binding [3] of the same binder?
Answer: 6.1%
